The record followed here is US20200032265, “Oligonucleotide Probes and Uses Thereof” (CARIS SCIENCE, INC., published 2020).

The target in this data set is T1, EpCAM (UniProt P16422 P16422:24-265).
T1 sequence: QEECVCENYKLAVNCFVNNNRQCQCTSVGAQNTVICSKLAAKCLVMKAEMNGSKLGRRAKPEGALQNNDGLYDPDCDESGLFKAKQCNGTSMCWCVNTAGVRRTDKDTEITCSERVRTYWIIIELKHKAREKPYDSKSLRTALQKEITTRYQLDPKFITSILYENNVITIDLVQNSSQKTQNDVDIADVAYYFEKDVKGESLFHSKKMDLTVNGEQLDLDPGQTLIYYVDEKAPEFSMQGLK
Description: stated only; no assay details.

For the molecule CCCCCCGAATCACATGACTTGGGCGGGGGTCG (ssDNA, 6-T 3' tail as spacer for biotin (shown in figure)) [Aptamer 4], the binding result is “binds”.
